# Measurements taken from patent US11938198B2, “Treatment of heart disease by disruption of the anchoring of PP2A” (University of Miami, priority 2019, dated 2024).
# T1: myc-tagged rat mAKAP 1286-2083 (lacking the PP2A binding site)
# T1 sequence: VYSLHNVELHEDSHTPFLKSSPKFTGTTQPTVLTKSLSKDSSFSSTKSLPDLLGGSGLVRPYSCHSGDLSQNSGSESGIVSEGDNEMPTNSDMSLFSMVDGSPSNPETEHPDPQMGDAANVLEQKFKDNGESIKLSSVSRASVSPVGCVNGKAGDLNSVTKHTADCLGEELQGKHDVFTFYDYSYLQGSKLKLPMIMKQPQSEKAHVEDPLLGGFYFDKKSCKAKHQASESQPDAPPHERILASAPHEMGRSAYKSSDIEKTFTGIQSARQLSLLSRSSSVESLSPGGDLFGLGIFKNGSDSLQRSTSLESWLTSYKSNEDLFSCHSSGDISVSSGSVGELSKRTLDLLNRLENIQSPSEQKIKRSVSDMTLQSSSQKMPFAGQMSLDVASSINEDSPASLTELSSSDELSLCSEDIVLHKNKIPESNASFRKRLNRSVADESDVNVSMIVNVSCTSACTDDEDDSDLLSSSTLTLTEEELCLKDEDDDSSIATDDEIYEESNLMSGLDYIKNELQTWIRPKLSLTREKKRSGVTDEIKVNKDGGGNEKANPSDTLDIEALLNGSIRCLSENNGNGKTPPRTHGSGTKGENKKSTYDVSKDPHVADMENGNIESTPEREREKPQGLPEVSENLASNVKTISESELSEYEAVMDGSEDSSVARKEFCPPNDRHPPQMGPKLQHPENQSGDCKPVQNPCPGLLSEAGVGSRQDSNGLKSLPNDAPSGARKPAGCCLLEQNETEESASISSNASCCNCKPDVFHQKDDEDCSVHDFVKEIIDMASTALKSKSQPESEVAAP
# T2: myc-tagged rat mAKAP PP2A Binding Domain (myc-PBD, rat mAKAP aa 2134-2314)
# T2 sequence: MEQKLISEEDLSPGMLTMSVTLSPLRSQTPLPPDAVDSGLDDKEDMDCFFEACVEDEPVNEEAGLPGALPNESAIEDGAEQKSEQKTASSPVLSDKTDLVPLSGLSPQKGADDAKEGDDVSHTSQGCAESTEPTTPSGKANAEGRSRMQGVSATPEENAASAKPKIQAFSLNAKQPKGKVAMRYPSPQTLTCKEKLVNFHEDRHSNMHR
# T3: myc-tagged, green fluorescent protein (GFP) RBD-fusion protein (mAKAP aa 1694-1833)
# T3 chain: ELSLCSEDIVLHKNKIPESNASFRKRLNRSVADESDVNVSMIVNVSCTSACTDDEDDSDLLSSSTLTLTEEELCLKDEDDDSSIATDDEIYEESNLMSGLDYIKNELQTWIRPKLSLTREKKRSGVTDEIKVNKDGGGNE
# B1: endogenous RSK3 of rat ventricular myocytes (protein)
# chain: MELNMKKFTVRRFFSVYLRKKSRSKSSSLSRLEEEGIVKEIDISSHVKEGFEKADPSQFELLKVLGQGSYGKVFLVRKVTGSDAGQLYAMKVLKKATLKVRDRVRSKMERDILAEVNHPFIVKLHYAFQTEGKLYLILDFLRGGDLFTRLSKEVMFTEEDVKFYLAELALALDHLHGLGIIYRDLKPENILLDEEGHIKITDFGLSKEAIDHDKRAYSFCGTIEYMAPEVVNRRGHTQSADWWSFGVLMFEMLTGSLPFQGKDRKETMALILKAKLGMPQFLSAEAQSLLRALFKRNPCNRLGAGVDGVEEIKRHPFFVTIDWNKLYRKEIKPPFKPAVGRPEDTFHFDPEFTARTPTDSPGVPPSANAHHLFRGFSFVASSLVQEPSQQDVPKAPIHPIVQQLHGNNIHFTDGYEIKEDIGVGSYSVCKRCVHKATDAEYAVKIIDKSKRDPSEEIEILLRYGQHPNIITLKDVYDDGKYVYLVMELMRGGELLDRILRQRCFSEREASDVLYTIARTMDYLHSQGVVHRDLKPSNILYMDESGNPESIRICDFGFAKQLRAENGLLMTPCYTANFVAPEVLKRQGYDAACDVWSLGILLYTMLAGFTPFANGPDDTPEEILARIGSGKYALSGGNWDSISDAAKDVVSKMLHVDPQQRLTAVQVLKHPWIVNREYLSQNQLSRQDVHLVKGAMAATYFALNRTPQAPRLEPVLSSSLAQRRGMKRLTSTRL
# B2: mAKAP 1286-2083: myc-tagged rat mAKAP 1286-2083 construct deficient in PP2A binding (protein)
# chain: T1 sequence
# modifications: left off: small tags and cut ends
# Key:
# [1] = tested on: T1, myc-tagged rat mAKAP 1286-2083 (lacking the PP2A binding site)
# [2] = molecular target: PP2A endogenous in HEK293 cells, detected as PP2A-C subunit or as okadaic acid-sensitive phosphatase activity; assay: cell-based or functional assay
# [3] = tested on: endogenous rat mAKAPβ (native mAKAP of adult rat heart extracts and neonatal rat ventricular myocytes)
# [4] = tested on: T2, myc-tagged rat mAKAP PP2A Binding Domain (myc-PBD, rat mAKAP aa 2134-2314)
# [5] = tested on: adult rat ventricular myocytes (ARVM); assay: ARVM morphologic hypertrophy (cell width and length by immunocytochemistry); type: cell-based; conditions: adenoviral expression, no drug
# Description: Adult rat ventricular myocyte isolation and culture: 2-3 month old rats were anesthetized using Ketamine (80-100 mg/kg) and Xylazine (5-10 mg/kg) IP following 1000 U heparinization for cardiac excision. The heart was transferred immediately into chilled perfusion buffer (NaCl 120 mM, KCl 5.4 mM, Na2HPO4·7H2O 1.2 mM, NaHCO320.0 mM, MgCl2·6H2O 1.6 mM, Taurine 5 mM, Glucose 5.6 mM, 2,3-Butanedione monoxime 10 mM) pre-equilibrated with 95% O2 and 5% CO2. After removal of extraneous tissue, the heart was attached via the aorta to a Harvard Langendorff apparatus cannula. Ca^2+-free perfusion was used to flush out remaining blood with a constant rate of 8-10 mL/min at 37° C. The heart was then digested through circulatory perfusion with 50 mL perfusion buffer containing 125 mg type II collagenase (Worthington, 245 U/mg), 0.1 mg protease (Sigma type XIV) and 0.1% BSA. After perfusion, the atria were removed and the ventricular myocytes dissociated by slicing and repetitive pipetting. The debris was filtered by a 200 μm nylon mesh, and the myocytes collected by one minute centrifugation at 50 g. Ca^2+ concentration in the buffer was gradually recovered to 1.8 mM and the myocytes were resuspended in ACCT medium (M199 Medium (Invitrogen 11150-059), Creatine 5 mM, L-carnitine 2 mM, Taurine 5 mM, HEPES 25 mM, 2,3-Butanedione monoxime 10 mM, BSA 0.2% and 1×Insulin-Transferrin-Selenium Supplement) and plated on 10 μg/ml laminin pre-coated dishes. Cells were washed with ACCT medium 1.5 hours after plating and subjected to adenoviral infection or siRNA transfection, in which 100-200 Multiplicity of Infection (MOI) of adenovirus and 100 nmol/L siRNA mixed with Dharmafect1 (Dharmacon) were used, respectively. Adrenergic agonists were added the next day, with biochemical assay and morphological measurement performed after 24 hours of stimulation.
# Immunocytochemistry: Myocytes on coverslips were fixed in 3.7% formaldehyde in PBS for 1 hour, permeabilized with 0.3% Triton X-100, and blocked in PBS containing 0.2% BSA and 1% horse serum. The slides were then sequentially incubated for 1 hour with primary and Alexa fluorescent dye-conjugated specific-secondary antibodies (Invitrogen, 1:1000) diluted in blocking buffer. The slips were washed three times with blocking buffer. 1 μg/mL Hoechst 33258 was included in the last wash stop to label nuclei. Slides were sealed in SlowFade Gold antifade buffer (Invitrogen, S36938) for fluorescent microscopy. Wide-field images were acquired using a Leica DM4000 Microscope.
# [6] = molecular target: T3, myc-tagged, green fluorescent protein …
# [7] = molecular target: T4, PP2A (Homo sapiens, UniProt P30153+P67775); assay: myc-tag immunoprecipitation of mAKAP fragments from HEK293 cells with phosphatase assay; type: binding; conditions: myc-tagged fragments expressed in HEK293 cells
# T4 construct: endogenous in cells; host or cells: HEK293
# T4 sequence (P67775 whole entry, the tested form may be a part): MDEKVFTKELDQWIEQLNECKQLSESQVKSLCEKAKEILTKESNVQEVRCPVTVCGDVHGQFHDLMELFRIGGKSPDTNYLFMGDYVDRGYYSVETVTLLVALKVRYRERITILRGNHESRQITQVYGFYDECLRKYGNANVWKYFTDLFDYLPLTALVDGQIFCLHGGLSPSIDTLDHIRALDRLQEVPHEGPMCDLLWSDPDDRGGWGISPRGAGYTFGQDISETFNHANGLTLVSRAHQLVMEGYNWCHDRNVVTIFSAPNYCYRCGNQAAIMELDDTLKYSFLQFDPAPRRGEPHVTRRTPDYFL
# T4 sequence (P30153 whole entry, the tested form may be a part): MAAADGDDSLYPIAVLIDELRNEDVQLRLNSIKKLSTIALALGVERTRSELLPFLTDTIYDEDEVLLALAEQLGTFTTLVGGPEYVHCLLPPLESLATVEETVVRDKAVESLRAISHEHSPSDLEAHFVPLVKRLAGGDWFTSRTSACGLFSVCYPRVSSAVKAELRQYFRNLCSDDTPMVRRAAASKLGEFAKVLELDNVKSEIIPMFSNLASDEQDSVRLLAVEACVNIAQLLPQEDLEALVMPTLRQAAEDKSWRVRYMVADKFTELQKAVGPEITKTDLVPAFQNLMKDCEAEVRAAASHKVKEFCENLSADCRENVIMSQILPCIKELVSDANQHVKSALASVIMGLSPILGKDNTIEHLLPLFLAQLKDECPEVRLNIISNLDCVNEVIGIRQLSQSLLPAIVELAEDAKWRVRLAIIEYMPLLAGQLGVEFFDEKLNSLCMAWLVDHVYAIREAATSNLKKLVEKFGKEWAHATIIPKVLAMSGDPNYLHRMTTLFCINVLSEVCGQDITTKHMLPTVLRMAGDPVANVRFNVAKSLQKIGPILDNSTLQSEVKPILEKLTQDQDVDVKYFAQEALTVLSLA
# Description: (§1) Immunoprecipitation—HEK293 cells were used in this project as a heterologous system lacking mAKAP in which the various wildtype and mutant proteins could be easily expressed. Cells cultured on 60 mm plates were transfected at 50%-70% confluency by the calcium phosphate method, using 6 μg of each DNA construct per plate. Cells were harvested 24 hours after transfection in 0.5 ml HSE buffer (HEPES, pH 7.4, 150 mM NaCl, 5 mM EDTA, 1% Triton X-100 and protease inhibitors). Supernatants were incubated with 3 μg antibody and 15 μl prewashed protein A- or G-agarose beads. Following overnight incubation at 4° C., the immunoprecipitates were washed three times with the same buffer. Bound proteins were analyzed by immunoblotting.
# To measure phosphatase activity, immunoprecipitated protein complexes were washed twice in HSE buffer and once in PP2A reaction buffer. The immunoprecipitates were incubated for 30 minutes at 30° C. in 20 μl PP2A assay buffer containing 100,000 cpm [^32P]histone in the presence and absence of inhibitors. The PP2A inhibitor (Calbiochem) was used at a concentration of 30 nM. Purified I-1 was phosphorylated by PKA before using as a specific PP1 inhibitor. Reactions were terminated by the addition of 100 μl 20% TCA followed by 10 min centrifugation. TCA supernatants containing released ^32PO4 were measured by scintillation counting. […]
# [8] = tested on: PDE4D3 Ser-54; assay: PDE4D3 Ser-54 phosphorylation in mAKAP immunoprecipitates from transfected HEK293 cells (phospho-specific immunoblot); type: cell-based; conditions: HEK293 cells expressing PDE4D3 and mAKAP construct lacking the PP2A binding site
# [9] = tested on: mAKAP-bound PDE4D3; assay: PDE activity associated with mAKAP immunoprecipitates from transfected HEK293 cells ([3H]cAMP); type: cell-based; conditions: unstimulated (bar 1 and 4)
# Description: as §1, with “immunoblotting. […]” for “immunoblotting.”
# As phosphorylation of PDE4D3 Ser-54 increases phosphodiesterase activity 2 fold (Sette and Conti 1996), whether OA treatment would also increase the activity of mAKAP-bound PDE4D3 was tested. mAKAP complexes were immunoprecipitated from transfected HEK293 cells and assayed for associated phosphodiesterase activity (FIG. 8B). mAKAP-associated phosphodiesterase activity in untreated cells was detected only when mAKAP was co-expressed with PDE4D3 (FIG. 8B, bar 1, and data not shown), consistent with a previous observation that PDE4D3 accounts for all of the phosphodiesterase activity associated with mAKAP in cardiac myocytes (Dodge et al. 2001).
molecule,measurement,setting,value
"PP2A endogenous in HEK293 cells, detected as PP2A-C subunit or as okadaic acid-sensitive phosphatase activity",baseline phosphorylation of mAKAP-bound PDE4D3 Ser-54,[1],0.49±0.19 fold of the level obtained with OA
myc-tagged rat mAKAP 1286-2083 (lacking the PP2A binding site) (from UniProt Q9WVC7 1286-2083),PDE4D3 activity in myc-tag immunoprecipitates,[2],30 % higher
"endogenous PP2A of rat heart and rat ventricular myocytes, detected as PP2A catalytic subunit (PP2A-C)",phosphatase activity associated with mAKAP immunoprecipitates from heart extracts ([32P]histone substrate),[3],3-fold enrichment of phosphatase activity over control IgG immunoprecipitates
same,Iso-induced SRF Ser103 phosphorylation in ARVM,[4],PBD expression potentiated the induction of SRF Ser^103 phosphorylation in ARVM stimulated with the β-adrenergic isoproterenol
B1,basal ARVM morphology,[5],selectively increased the width
same,PE-induced SRF Ser103 phosphorylation in NRVM and ARVM,[6],inhibited PE-induced SRF Ser^103 phosphorylation in both NRVM and primary adult rat ventricular myocyte cultures
B2,co-immunoprecipitation with OA-sensitive phosphatase activity,[7],not
same,"baseline phosphorylation of mAKAP-bound PDE4D3, fold of the level obtained with OA",[8],0.49±0.19 fold
same,PDE4D3 activity higher in immunoprecipitates lacking PP2A than in complexes containing the phosphatase,[9],30%
